In the Immune Epitope Database (IEDB) one finds Kd and IC50 data, which are given here for 14 sequences.

One assay deals with HLA-B*40:02. The assay can be described thus: IEDB peptide-MHC binding, purified MHC/competitive/radioactivity; filed as Kd, often an IC50 or EC50 that approximates it; ≥ and ≤ were set here for values at or beyond the usual limits of such assays.
For a further assay, the target named is HLA-B*44:02. The assay is described as above.
For a further assay, the target named is HLA-B*45:01. The description is as above.
The target of another assay is HLA-B*44:03. Described as above.
A further assay has as its target HLA-B*40:01. The assay is described as above.
The target of a further assay is HLA-B*18:01. The description is as above.
For a further assay, the target named is HLA-A*68:02. The assay is described as above.
Another assay deals with HLA-A*02:06. Described as above.
The next assay addresses HLA-A*31:01. The assay can be described thus: IEDB peptide-MHC binding, purified MHC/competitive/fluorescence; filed as Kd, often an IC50 or EC50 that approximates it; ≥ and ≤ were set here for values at or beyond the usual limits of such assays. To be noted: source organism: West Nile virus.
Assay [1] addresses HLA-A*11:01. The assay can be described thus: IEDB peptide-MHC binding, purified MHC/direct/fluorescence; filed as Kd, often an IC50 or EC50 that approximates it; ≥ and ≤ were set here for values at or beyond the usual limits of such assays. To be noted: source organism: West Nile virus.
For a further assay, the target named is HLA-A*03:01. Described as above. To be noted: source organism: West Nile virus.
In assay [2] the target is HLA-A*11:01. The assay can be described thus: IEDB peptide-MHC binding, purified MHC/competitive/fluorescence; ≥ and ≤ were set here for values at or beyond the usual limits of such assays. To be noted: source organism: West Nile virus.
The next assay addresses HLA-B*07:02. The assay can be described thus: IEDB peptide-MHC binding, purified MHC/competitive/radioactivity; filed as Kd, often an IC50 or EC50 that approximates it; ≥ and ≤ were set here for values at or beyond the usual limits of such assays. To be noted: source organism: Vaccinia virus WR.
For a further assay, the target named is HLA-A*02:03. The description is as above. To be noted: source organism: Vaccinia virus WR.
For the next assay, the target named is HLA-B*51:01. Described as above. To be noted: source organism: Vaccinia virus WR.
Another assay deals with HLA-A*02:01. The description is as above. To be noted: source organism: Vaccinia virus WR.
The next assay addresses HLA-B*53:01. Described as above. To be noted: source organism: Vaccinia virus WR.
A further assay addresses HLA-B*35:01. Described as above. To be noted: source organism: Vaccinia virus WR.
The target of the next assay is HLA-A*02:02. The assay is described as above. To be noted: source organism: Vaccinia virus WR.
Assay [3] addresses HLA-A*11:01. The assay is described as above. To be noted: source organism: Vaccinia virus WR.
A further assay deals with HLA-B*54:01. The assay is described as above. To be noted: source organism: Vaccinia virus WR.
[4] abbreviates: source organism: SARS coronavirus Tor2.
Where [5] appears, read: source organism: Dengue virus 1 Brazil/97-11/1997.
[6] abbreviates: source organism: Mammarenavirus brazilense.
[7] abbreviates: source organism: Mammarenavirus lassaense.
[8] abbreviates: source organism: Mammarenavirus tacaribeense.
[9] abbreviates: source organism: Mammarenavirus juninense.
[10] abbreviates: source organism: Vaccinia virus WR.

Bounds are passed on as bounds.

The Kd is the concentration at which binding is half-saturated. Take GEILLLEWLA: the equilibrium dissociation constant (Kd) stood at 16.4 µM with HLA-B*40:02 (setting [4]); 0.61 µM with HLA-B*44:02 (setting [4]); 0.0172 µM in the assay with HLA-B*45:01 (setting [4]); 0.11 µM with HLA-B*44:03 (setting [4]); 0.0203 µM with HLA-B*40:01 (setting [4]); 4.67 µM with HLA-B*18:01 (setting [4]).

Regarding TSIGLICVIA, the dissociation constant Kd in the assay with HLA-A*68:02 (source organism: Dengue virus 3 Martinique/1243/1999) is 0.0355 µM.

Consider LTMKEKSWLV, for which the Kd was determined as 0.0738 µM with HLA-A*02:06 (setting [5]) and 0.25 µM with HLA-A*68:02 (setting [5]).

In the case of RELLGYCVSL, the Kd in the assay with HLA-B*40:02 (setting [6]) came to 0.00507 µM; with HLA-B*44:02 (setting [6]), 1.92 µM; with HLA-B*45:01 (setting [6]), 4.85 µM; with HLA-B*44:03 (setting [6]), 5.06 µM; with HLA-B*40:01 (setting [6]) it was 9.82 µM; with HLA-B*18:01 (setting [6]), 12.8 µM.

As to HDFGIPTPS, the Kd in the assay with HLA-B*40:02 (setting [7]) is 0.0766 µM; with HLA-B*44:02 (setting [7]), no less than 67.1 µM; with HLA-B*45:01 (setting [7]), 1.46 µM; in the assay with HLA-B*44:03 (setting [7]) it was no less than 78.1 µM; with HLA-B*40:01 (setting [7]), 13.7 µM; with HLA-B*18:01 (setting [7]), 18.2 µM.

Regarding WVSGVSGNI, the Kd in the assay with HLA-A*68:02 (source organism: Dengue virus 4 Philippines/H241/1956) came out at 0.0101 µM.

Take AEFKSRFFVM: the equilibrium dissociation constant (Kd) came to 0.00357 µM with HLA-B*40:02 (setting [8]); 0.192 µM in the assay with HLA-B*44:02 (setting [8]); 0.29 µM with HLA-B*45:01 (setting [8]); 0.0872 µM in the assay with HLA-B*44:03 (setting [8]); 0.0416 µM with HLA-B*40:01 (setting [8]); 0.0372 µM with HLA-B*18:01 (setting [8]).

For RELYLNSSNV, the Kd is 0.0192 µM with HLA-B*40:02 (setting [4]); 2.16 µM in the assay with HLA-B*44:02 (setting [4]); 0.0955 µM with HLA-B*45:01 (setting [4]); 1.07 µM in the assay with HLA-B*44:03 (setting [4]); 0.184 µM with HLA-B*40:01 (setting [4]); no less than 70.5 µM with HLA-B*18:01 (setting [4]).

For MEKLKALVA, the dissociation constant (Kd) worked out at 0.176 µM with HLA-B*40:02 (setting [4]); 0.568 µM with HLA-B*44:02 (setting [4]); 0.0241 µM with HLA-B*45:01 (setting [4]); 0.277 µM with HLA-B*44:03 (setting [4]); 0.152 µM with HLA-B*40:01 (setting [4]); 5.49 µM with HLA-B*18:01 (setting [4]).

As a reminder, the IC50 is the concentration needed to halve the response being measured. For KSYETEYPK, the Kd stood at 0.126 µM with HLA-A*31:01, 0.0077 µM in the assay with HLA-A*11:01 [1] and 0.729 µM with HLA-A*03:01. In the assay with HLA-A*11:01 [2], this sequence yielded an IC50 of 7.88 µM.

Take PELELNVDAM: the Kd with HLA-B*40:02 (setting [9]) is 0.796 µM; with HLA-B*44:02 (setting [9]) it was no less than 70.2 µM; in the assay with HLA-B*45:01 (setting [9]) it was no less than 70 µM; in the assay with HLA-B*44:03 (setting [9]) it was no less than 70.1 µM; in the assay with HLA-B*40:01 (setting [9]), no less than 69.5 µM; with HLA-B*18:01 (setting [9]), 0.367 µM.

As to TEVMPVSMA, the Kd in the assay with HLA-B*40:02 (setting [4]) amounted to 0.0797 µM; with HLA-B*44:02 (setting [4]), 6.84 µM; with HLA-B*45:01 (setting [4]), 0.182 µM; with HLA-B*44:03 (setting [4]) it was 3.85 µM; with HLA-B*40:01 (setting [4]), 15.4 µM; with HLA-B*18:01 (setting [4]), 11.1 µM.

Turning to NEYTGNYQCG, the Kd in the assay with HLA-B*40:02 (setting [4]) is no less than 28.5 µM; in the assay with HLA-B*44:02 (setting [4]), no less than 70.2 µM; in the assay with HLA-B*45:01 (setting [4]), 1.79 µM; with HLA-B*44:03 (setting [4]), 7.52 µM; with HLA-B*40:01 (setting [4]) it was no less than 69.6 µM; with HLA-B*18:01 (setting [4]) it was no less than 33.4 µM.

Consider STCYVFGLY, for which the Kd is no less than 77.5 µM in the assay with HLA-B*07:02; no less than 10 µM in the assay with HLA-A*02:03; no less than 73.3 µM in the assay with HLA-B*51:01; 4.16 µM with HLA-A*02:01; 9.93 µM with HLA-B*53:01; 6.14 µM in the assay with HLA-A*02:06 (setting [10]). The Kd with HLA-B*35:01 is no less than 38.2 µM; with HLA-A*02:02 it was 13.4 µM; with HLA-A*68:02 (setting [10]), 1.38 µM; with HLA-A*11:01 [3], 0.00786 µM; in the assay with HLA-B*54:01 it was 10.7 µM.
